The record followed here is patent US20120034651.

In data set [1] the test system is T1, 10/24 peptide (amino acid residue 10-24 of human TCL1, NH2-AVTDHPDRLWAWEKF-COOH).
T1 sequence: AVTDHPDRLWAWEKF

Data set [2] relates to T2, peptide having repetitive sequence of 11-23 from 10-24 (NH2-VTDHPDRLWAWEK-RRR-VTDHPDRLWAWEK-COOH).
T2 sequence: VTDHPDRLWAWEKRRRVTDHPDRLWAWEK

The target of data set [3] is D16G TCL1 (UniProt P56279).
Chain of D16G TCL1 (P56279 whole entry D16G): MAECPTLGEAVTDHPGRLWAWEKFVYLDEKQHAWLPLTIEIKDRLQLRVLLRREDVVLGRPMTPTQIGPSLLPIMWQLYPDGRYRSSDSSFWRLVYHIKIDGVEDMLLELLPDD

With “Recombinant Akt protein extracted from mammalian cells”, the “In vitro Akt kinase assay, GSK phosphorylation by western blotting, peptide at 200 µM” value in data set [1] is “the 10/24 peptide was effectively inhibited the phosphorylation potency for GSK peptide of Akt”. In data set [2], the “In vitro Akt kinase assay, GSK phosphorylation” value was “The similar inhibition effect on Akt kinase activity was also identified”.

For “Akt (in vitro kinase assay of Example 1)”, the “Akt kinase activity in an in vitro kinase assay (GSK-3a phosphorylation, Akt Ser-473 phosphorylation)” value in data set [3] is “D16G TCL1 did not affect the Akt kinase activity even though in a dose escalation experiment”.
